Measurements: article PMC10294536

What was measured:
Conditions in all cases: reference: EGFP-HURP wild type; sites S725
[1] = target: GM130 (UniProt Q08379); assay: co-IP of EGFP-HURP with GM130
[2] = target: GP73 (UniProt Q8NBJ4); assay: co-IP of EGFP-HURP with GP73
[3] = target: GRASP65 (UniProt Q9BQQ3); assay: co-IP of EGFP-HURP with GRASP65

Measured: binding against the reference

HURP (from UniProt Q15398) EGFP-HURP 725A
lost: all assays above
